# Patent publication US20260210971A1 (Pfizer, published 2026)
# Residue numbers refer to the chain shown, from its start. Several values for one entry are separate records, joined by “and”; a condition that tells them apart may be missing. Equal values may be shown once.
# T1: endogenous TL1A of stimulated cynomolgus monkey peripheral blood (cynomolgus monkey, UniProt G7PRK8 72-251)
# T1 sequence: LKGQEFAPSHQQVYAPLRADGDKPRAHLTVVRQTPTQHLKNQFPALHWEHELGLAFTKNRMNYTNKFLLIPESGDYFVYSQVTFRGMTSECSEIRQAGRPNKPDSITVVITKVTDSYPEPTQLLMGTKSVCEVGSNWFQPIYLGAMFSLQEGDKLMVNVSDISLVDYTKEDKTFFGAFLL
# T2: endogenous TL1A of stimulated human peripheral blood (human, UniProt O95150 72-251, limits assumed)
# T2 sequence (looked up): T1 sequence with L39F, V78I
# T3: recombinant soluble human TL1A (human, UniProt O95150 71-251)
# T3 sequence: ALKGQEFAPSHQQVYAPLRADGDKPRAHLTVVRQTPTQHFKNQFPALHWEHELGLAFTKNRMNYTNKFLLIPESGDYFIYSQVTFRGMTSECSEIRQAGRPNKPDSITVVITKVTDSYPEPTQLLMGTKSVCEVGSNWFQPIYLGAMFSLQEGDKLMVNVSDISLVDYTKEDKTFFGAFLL
# T4: recombinant soluble cynomolgus monkey TL1A (cynomolgus monkey, UniProt O95150 72-251 (human entry))
# T4 construct: also called cyno rsTL1A; cyno TL1A
# T4 chain: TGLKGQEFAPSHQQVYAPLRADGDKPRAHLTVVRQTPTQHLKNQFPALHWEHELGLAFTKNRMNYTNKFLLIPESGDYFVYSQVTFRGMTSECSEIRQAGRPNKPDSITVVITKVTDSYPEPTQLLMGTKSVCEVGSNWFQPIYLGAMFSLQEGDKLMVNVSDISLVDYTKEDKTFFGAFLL
# T5: recombinant soluble murine TL1A (mouse, UniProt Q5UBV8 75-252)
# T5 construct: also called murine rsTL1A; mouse TL1A
# T5 chain: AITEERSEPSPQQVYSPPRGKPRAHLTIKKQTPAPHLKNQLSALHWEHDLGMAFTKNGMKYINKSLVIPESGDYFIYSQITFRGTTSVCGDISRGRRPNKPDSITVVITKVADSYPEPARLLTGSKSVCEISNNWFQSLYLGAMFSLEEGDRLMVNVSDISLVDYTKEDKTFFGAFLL
# T6: human TNFSF6 (FAS Ligand) (human, UniProt P48023 134-281, limits assumed)
# T6 sequence (looked up): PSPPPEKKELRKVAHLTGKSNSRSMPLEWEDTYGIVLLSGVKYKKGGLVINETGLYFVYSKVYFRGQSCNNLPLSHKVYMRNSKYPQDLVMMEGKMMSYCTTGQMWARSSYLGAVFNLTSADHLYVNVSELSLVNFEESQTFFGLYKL
# B1: 1D1 1.31 (antibody, human IgG1, kappa, V domains shown)
# VH: QVQLVQSGAEVKKPGASVKVSCKASGYDFTYYGISWVRQAPGQGLEWMGWISTYNGNTHYARMLQGRVTMTTDTSTRTAYMELRSLRSDDTAVYYCARENYYGSGAYRGGMDVWGQGTTVTVSS
# VL: EIVLTQSPATLSLSPGERATLSCRASQSVSSYLAWYQQKPGQAPRLLIYDASNRATGIPARFSGSGSGTDFTLTISSLEPEDFAVYYCQQRSNWPWTFGQGTKVEIKR
# notes: Full length human IgG1 with effector function-null mutations in the Fc, produced in CHO cells; Used biotinylated for staining of monocytes
# Key:
# [1] = biological target: T1, endogenous TL1A of stimulated …; assay: cell-based or functional assay
# [2] = biological target: T2, endogenous TL1A of stimulated human …; assay: cell-based or functional assay
# [3] = biological target: T3, recombinant soluble human TL1A; assay: cell-based or functional assay
# [4] = biological target: T3, recombinant soluble human TL1A; assay: plate ELISA, TL1A coated, antibody titrated; plate of Lymβ 2
# Description: (§1) The first 6 rows of each plate were coated with the test article cytokine, and the last two rows were coated with TL1A as a positive control. Rows 1 and 2 were duplicate rows where the test article cytokine was tested for binding to increasing concentrations of its corresponding anti-cytokine positive control antibody. […] The experiment for each cytokine was repeated three times.
# (§2) Plates were incubated overnight at 4° C. After washing the plates three times (3×) with 300 μL PBST using a plate washer (model ELx405; BioTek), plates were blocked by incubating for 1 hour at room temperature with 300 μL of blocking buffer (PBST+0.5% BSA) in each well. […] Plates were then washed 5 times with PBST using the plate washer.
# [5] = biological target: T3, recombinant soluble human TL1A; assay: plate ELISA, TL1A coated, antibody titrated; plate of TNF β
# Description: as §1, §2
# [6] = biological target: T2, endogenous TL1A of stimulated human …; assay: cell-based or functional assay; remark: listed apart in the source
# [7] = biological target: T3, recombinant soluble human TL1A; assay: cell-based or functional assay; remark: listed apart in the source
# [8] = biological target: T3, recombinant soluble human TL1A; assay: plate ELISA, TL1A coated, antibody titrated
# [9] = biological target: T4, recombinant soluble cynomolgus monkey …; assay: SPR, IgG captured on anti-hIgG, TL1A injected;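 note: biacore surface plasmon resonance on a dextran sensor chip, double-referenced sensorgrams fitted to a one-to-one binding model, KD taken as dissociation over association rate constant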
# [10] = biological target: T1, endogenous TL1A of stimulated …; assay: MSD ligand-binding assay of 1D1 1.31-free sTL1A in plasma of stimulated cynomolgus blood; mean of n=6 monkeys
# Description: Cynomolgus monkey peripheral blood treated with 1 ng/ml recombinant human IL-12 and 10 ng/ml recombinant human IL-18 was stimulated by immune complex coated plates for 24 hours at 37° C. […] Plasma was prepared from these samples and IFNγ was measured in the plasma samples by a quantitative immune-ligand binding assay using a Mesoscale (MSD) kit. […] Cynomolgus monkey peripheral blood treated with 1 ng/ml recombinant human IL-12 and 10 ng/ml recombinant human IL-18 was stimulated by immune complex coated plates for 24 hours at 37° C.
# For IC and IL-12 and IL-18 stimulation, cynomolgus monkey blood was collected in sodium heparin coated tubes and used within one hour after the blood draw. Human IL-12 (1 ng/mL final concentration) and human IL-18 (10 ng/ml final concentration) were mixed in with blood prior to addition of 95 μL of the blood/IL-12/IL-18 mixture to each well of the IC coated plates.
# [11] = biological target: T2, endogenous TL1A of stimulated human …; assay: MSD ligand-binding assay of 1D1 1.31-free sTL1A in plasma of stimulated human blood
# Description: (§3) After 24 hours of culture at 37° C., 100 μL of 5% bovine serum albumin in PBS were added and mixed well with the 200 μL of blood cultures to dilute plasma (dilution factor: 1.5). […] IFNγ was measured using the MSD human IFNγ kit (Catalog No. K151AEB-1) following the manufacturer's instructions. […] The following day, plates were washed three times with 150 μL per well of 0.1% Tween 20 in PBS, followed with 150 μL per well of blocking solution (5% bovine serum albumin in PBS), then the plates were incubated at room temperature for 1 hour with orbital shaking (1500 rpm). After the plates were washed as mentioned above, diluted plasma samples were added and incubated at 4° C. overnight. […] TL1A standard curves were generated using recombinant human soluble TL1A. Plates were read following the manufacturer's procedure, standard curve and plasma concentration of the cytokine were calculated with the MSD software.
# [12] = biological target: T3, recombinant soluble human TL1A; assay: flow cytometry, inhibition of the binding of 10 µg/mL biotinylated TL1A to DR3-transfected HEK293 cells
# [13] = biological target: T3, recombinant soluble human TL1A; assay: plate ELISA, TL1A coated, antibody titrated; plate of TNFSF14
# Description: as §1, §2
# [14] = biological target: T2, endogenous TL1A of stimulated human …; assay: MSD ligand-binding assay of 1D1 1.31-free soluble TL1A in plasma of human whole blood stimulated 24 h with immune complex + IL-12/IL-18
# Description: as §3
# [15] = biological target: T3, recombinant soluble human TL1A; assay: plate ELISA, TL1A coated, antibody titrated; plate of Lymβ 1
# Description: as §1, §2
# [16] = biological target: T5, recombinant soluble murine TL1A; assay: KinExA, equilibrium in solution
# [17] = biological target: T4, recombinant soluble cynomolgus monkey …; assay: KinExA, equilibrium in solution
# [18] = biological target: T3, recombinant soluble human TL1A; assay: KinExA, equilibrium in solution
# [19] = biological target: T6, human TNFSF6 (FAS Ligand); assay: plate ELISA, TNFSF6 coated at 1 µg/mL, detection with anti-human IgG HRP
# Description: as §1, §2
binder,measurement,setting,value
B1,"inhibition of IFNγ secretion in stimulated cynomolgus whole blood, IC50",[1],0.036 nM
same,"inhibition of IFNγ secretion in stimulated human whole blood, IC50",[2],0.277 nM
same,"inhibition of NFκB activation by 150 pM TL1A in TF-1-NFκB-luciferase cells, IC50",[3],95 pM
same,"inhibition of caspase activation by 87 pM TL1A in TF-1 cells, IC50",[3],69 pM
same,EC50,[4],0.0058 ng/mL
same,EC50,[5],0.0023 ng/mL
same,"HWB Assay, average IC50",[6],0.00167 nM
same,"Caspase Assay, average IC50",[7],0.106 nM
same,"NFkB Assay, average IC50",[7],0.15 nM
same,EC50,[8],8400 ng/mL
same,Kd,[9],0.081 nM
same,koff,[9],3.6e-05 s⁻¹
same,kon,[9],450000 M⁻¹ s⁻¹
same,t1/2,[9],5.34 h
same,IC50,[10],0.022 nM
same,IC50,[11],0.00106 nM
same,IC50,[12],18700 ng/mL
same,EC50,[13],0.0084 ng/mL
same,IC50 (read off the curve),[14],~0.005 nM
same,EC50,[15],0.0063 ng/mL
same,Kd,[16],0.0953 nM
same,Kd,[17],0.0035 nM
same,Kd,[18],0.00138 nM and 0.0036 nM
same,binding result,[19],no binding (tested: 25 µg/ml)
